We go through four molecules from PMC10281602.

The target in one series is T1, PbrNSC (Pyrus bretschneideri? (pear …, UniProt A0A5J6X514 1-400)).
T1 sequence: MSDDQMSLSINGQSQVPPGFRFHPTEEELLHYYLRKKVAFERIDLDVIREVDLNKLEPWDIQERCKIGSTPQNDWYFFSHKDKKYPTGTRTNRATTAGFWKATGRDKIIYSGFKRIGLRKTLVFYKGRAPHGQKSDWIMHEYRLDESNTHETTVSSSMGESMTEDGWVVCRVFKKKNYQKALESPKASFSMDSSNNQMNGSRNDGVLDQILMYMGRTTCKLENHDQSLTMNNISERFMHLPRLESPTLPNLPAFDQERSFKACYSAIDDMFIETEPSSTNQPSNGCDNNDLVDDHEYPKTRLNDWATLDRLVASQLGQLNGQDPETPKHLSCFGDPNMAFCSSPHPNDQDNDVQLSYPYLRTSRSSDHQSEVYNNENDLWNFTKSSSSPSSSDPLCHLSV
Kind of series: EMSA.

For series [1], the target named is T2, PbrARF13 (Pyrus bretschneideri? (pear …, UniProt UPI00202FA75D 49-757)).
T2 sequence: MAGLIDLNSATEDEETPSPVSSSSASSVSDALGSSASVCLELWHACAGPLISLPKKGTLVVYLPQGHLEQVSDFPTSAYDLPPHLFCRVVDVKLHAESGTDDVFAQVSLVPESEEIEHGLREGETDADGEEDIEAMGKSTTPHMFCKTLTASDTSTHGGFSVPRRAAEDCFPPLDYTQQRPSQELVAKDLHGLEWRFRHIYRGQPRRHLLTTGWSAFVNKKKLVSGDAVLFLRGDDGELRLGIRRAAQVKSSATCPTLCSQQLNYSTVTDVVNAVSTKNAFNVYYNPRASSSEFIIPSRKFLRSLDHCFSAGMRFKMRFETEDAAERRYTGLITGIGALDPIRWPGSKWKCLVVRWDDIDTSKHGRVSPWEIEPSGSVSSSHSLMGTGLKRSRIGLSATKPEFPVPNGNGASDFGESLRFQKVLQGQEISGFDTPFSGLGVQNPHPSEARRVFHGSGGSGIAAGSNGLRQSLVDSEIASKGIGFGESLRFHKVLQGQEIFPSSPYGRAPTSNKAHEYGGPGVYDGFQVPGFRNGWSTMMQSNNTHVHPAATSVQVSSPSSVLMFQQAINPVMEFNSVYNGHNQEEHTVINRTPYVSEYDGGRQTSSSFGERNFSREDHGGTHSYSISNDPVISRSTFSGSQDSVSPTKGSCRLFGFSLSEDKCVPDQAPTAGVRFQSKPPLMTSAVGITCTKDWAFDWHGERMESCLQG
Kind of series: EMSA.

Series [2] has as its target T2, PbrARF13. Kind of series: competition.

B1: SNBE probe (dsDNA)
DNA 1: ATACTTGAAACCTAAGTAA
DNA 2: TTACTTAGGTTTCAAGTAT
Take B1: the binding result in the series with PbrNSC is reported as “binds”.

B2: AuxRE-2 mutant probe (dsDNA)
DNA 1: ATCATCTCGAGAGATCTCTTGC
DNA 2: GCAAGAGATCTCTCGAGATGAT
B2: in the series with PbrARF13 [1], the binding result is listed as “no binding”.

B3: AuxRE-2 probe (dsDNA)
DNA 1: ATCATCTCTGTCTCTCTCTTGC
DNA 2: GCAAGAGAGAGACAGAGATGAT
In the case of B3, the binding result with PbrARF13 [1] is reported as “binds”.

B4: AuxRE-2 unlabelled competitor (dsDNA)
DNA 1: ATCATCTCTGTCTCTCTCTTGC
DNA 2: GCAAGAGAGAGACAGAGATGAT
Turning to B4, the binding result with PbrARF13 [2] is reported as “binds”.
